Literature values, collected in PMC4747809.
pKd: −log10 of the molar value.

Key:
[1] = target: iC3b/C3dg TED (iC3b, C3dg) (Homo sapiens) (UniProt P01024)
[2] = target: iC3b/C3dg iC3b, C3dg (Homo sapiens) (UniProt P01024)
iC3b/C3dg iC3b, C3dg (Homo sapiens), sequence (P01024 955-1303): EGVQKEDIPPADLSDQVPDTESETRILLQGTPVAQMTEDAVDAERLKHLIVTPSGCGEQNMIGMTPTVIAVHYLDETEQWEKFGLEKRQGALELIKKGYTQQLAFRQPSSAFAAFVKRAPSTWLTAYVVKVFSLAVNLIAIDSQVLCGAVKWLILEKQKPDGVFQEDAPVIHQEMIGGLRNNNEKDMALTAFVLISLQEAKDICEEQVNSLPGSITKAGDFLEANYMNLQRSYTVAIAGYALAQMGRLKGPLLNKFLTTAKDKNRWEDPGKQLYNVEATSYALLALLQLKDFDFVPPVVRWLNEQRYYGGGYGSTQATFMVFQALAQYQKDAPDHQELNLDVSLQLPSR

Factor H (FH) domains 19-20, sequence (P08603 1107-1231): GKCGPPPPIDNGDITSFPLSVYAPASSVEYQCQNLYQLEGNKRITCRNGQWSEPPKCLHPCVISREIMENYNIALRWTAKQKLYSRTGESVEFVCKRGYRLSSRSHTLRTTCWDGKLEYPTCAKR
Complement receptor 2 (CR2) domains 1-4, sequence (P20023 21-273): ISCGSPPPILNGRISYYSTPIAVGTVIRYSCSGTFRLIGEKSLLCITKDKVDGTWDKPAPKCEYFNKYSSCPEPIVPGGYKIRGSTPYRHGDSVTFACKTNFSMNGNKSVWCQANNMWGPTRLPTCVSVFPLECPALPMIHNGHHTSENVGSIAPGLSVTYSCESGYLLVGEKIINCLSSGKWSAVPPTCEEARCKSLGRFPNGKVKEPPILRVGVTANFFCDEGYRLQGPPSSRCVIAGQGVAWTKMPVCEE
iC3b/C3dg TED (iC3b, C3dg) (Homo sapiens), sequence (P01024 955-1303): as the sequence (P01024 955-1303) above

pKd [1] | pKd [2] | Substance
6.30 |  | Complement receptor 2 (CR2) domains 1-4 (from UniProt P20023)
 | 5.30 | Factor H (FH) domains 19-20 (from UniProt P08603)
